Test results taken from article PMC8092406 (Proceedings of the National Academy of Sciences of the …, 2021).

Target: the molecule itself
Experiment: negative-stain electron microscopy

Row | Protein | binding result
1 | Cp149, CTD-less HBV core protein (domain or fragment) MDIDPYKEFGATVELLSFLPSDFFPSVRDLLDTASALYREALESPEHCSPHHTALRQAILCWGELMTLATWVGVNLEDPASRDLVVSYVNTNMGLKFRQLLWFHISCLTFGRETVIEYLVSFGVWIRTPPAYRPPNAPILSTLPETTVV | binds
2 | Cp183-F97L (natural protein) MDIDPYKEFGATVELLSFLPSDFFPSVRDLLDTASALYREALESPEHCSPHHTALRQAILCWGELMTLATWVGVNLEDPASRDLVVSYVNTNMGLKLRQLLWFHISCLTFGRETVIEYLVSFGVWIRTPPAYRPPNAPILSTLPETTVVRRRGRSPRRRTPSPRRRRSQSPRRRRSQSRESQC | binds
